Source: patent US20120164066A1 (University of Pennsylvania, published 2012)

Legend:
[1] = molecular target: T1, FcγIIIB Fc receptor (UniProt O75015 17-200); test: Biacore
T1 construct: The form used in the Biacore experiments is not described; also called FcγIIIB receptor
Protocol: In some cases, antigen-binding protein can interact with an Fc receptor, which may facilitate cell-mediated cytotoxicity. Biacore experiments were conducted to determine whether the antigen-binding protein AHNP-CH2-mimic could bind to the FcγIIIB Fc receptor. […] The interaction between AFc, an antigen binding protein consisting of AHNP linked to the Fc region of an IgG1 antibody, and FcγIIIB was examined for comparative purposes. […] Since FcγIIIB is known to have low affinity to IgG1, the level of affinity observed for AHNP-CH2-mimic is very encouraging. Furthermore, a synthetic CH2-mimic peptide was also observed to compete with the monoclonal antibody 4D5 (IgG1) for binding to the FcγIIIB receptor when analyzed in Biacore experiments. Despite the observed competition for FcγIIIB, direct binding between the CH2-mimic peptide alone and FcγIIIB was not detected, possibly due to the inability for the interaction to be detected by Biacore.

[2] = molecular target: T2, Her2/neu receptor expressed on cells (T6-17 cells; SKBR3 cells) (UniProt P04626 23-1255); test: FACS on T6-17 cells, 45 min on ice, rabbit anti-His antibody and FITC anti-rabbit antibody
T2 construct: whole, on cells; also called p185 HER2/neu
Protocol: Experiments were conducted to determine whether the ALZ construct (SEQ ID NO. 5) could bind to T6-17 cells, which express the Her2/neu receptor. T6-17 cells were incubated with (dark line) or without (light line) ALZ for 45 min on ice and then with a rabbit anti-His antibody followed by a FITC-labeled anti-rabbit antibody. Other antigen-binding proteins were tested in this manner also.

T1 sequence (O75015 17-200): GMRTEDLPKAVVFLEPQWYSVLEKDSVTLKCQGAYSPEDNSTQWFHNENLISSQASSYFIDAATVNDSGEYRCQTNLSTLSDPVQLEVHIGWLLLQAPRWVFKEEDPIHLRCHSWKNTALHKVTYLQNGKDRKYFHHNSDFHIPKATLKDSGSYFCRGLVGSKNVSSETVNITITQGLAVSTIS

FPAPLAPGGLYLGG [synthetic CH2-mimic peptide]
binding result [1]: no binding

B1: ALZ (designed binder)
chain: MAFCDGFYACYMDVGGGGGSMASDFLKHCQADHLLDEKGRAQCLLQREMVQSLEQQLVLEKEKLSAMQAHLAGKMALTKASSVASSDKLEHHHHHH
notes: AHNP on the N-terminus of the leucine zipper domain of human FOXP3, with a His-tag; The LZ domain is said to form dimers and tetramers; also called ALZ construct
binding result [2]: binds
